From publication PMC2566858 (Nucleic Acids Research, 2008)
Like-named read-outs stand apart in the source and are kept apart here.

Key:
Assay in all cases: fluorescence anisotropy
[1] = target: T1, rGyr_hel (reverse gyrase helicase-like domain) (Thermotoga maritima, UniProt O51934 59-541)
T1 sequence: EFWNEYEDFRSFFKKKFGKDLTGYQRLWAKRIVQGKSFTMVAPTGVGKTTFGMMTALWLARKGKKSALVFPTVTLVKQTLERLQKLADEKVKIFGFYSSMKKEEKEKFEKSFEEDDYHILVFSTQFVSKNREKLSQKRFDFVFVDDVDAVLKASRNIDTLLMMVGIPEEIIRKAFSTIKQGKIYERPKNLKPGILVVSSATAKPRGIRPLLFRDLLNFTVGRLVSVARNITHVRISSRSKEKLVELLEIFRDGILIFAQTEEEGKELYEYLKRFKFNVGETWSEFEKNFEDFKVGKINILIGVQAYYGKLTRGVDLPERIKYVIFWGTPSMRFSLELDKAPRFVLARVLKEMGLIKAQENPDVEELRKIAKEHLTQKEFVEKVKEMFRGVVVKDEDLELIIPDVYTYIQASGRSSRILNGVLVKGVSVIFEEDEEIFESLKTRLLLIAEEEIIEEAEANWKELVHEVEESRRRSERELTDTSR

[2] = target: T1, rGyr_hel (reverse gyrase helicase-like …); remark: listed apart in the source
[3] = target: T2, rGyr_fl Y851F (full-length reverse gyrase) (Thermotoga maritima, UniProt O51934 1-1104, Y851F)
T2 sequence: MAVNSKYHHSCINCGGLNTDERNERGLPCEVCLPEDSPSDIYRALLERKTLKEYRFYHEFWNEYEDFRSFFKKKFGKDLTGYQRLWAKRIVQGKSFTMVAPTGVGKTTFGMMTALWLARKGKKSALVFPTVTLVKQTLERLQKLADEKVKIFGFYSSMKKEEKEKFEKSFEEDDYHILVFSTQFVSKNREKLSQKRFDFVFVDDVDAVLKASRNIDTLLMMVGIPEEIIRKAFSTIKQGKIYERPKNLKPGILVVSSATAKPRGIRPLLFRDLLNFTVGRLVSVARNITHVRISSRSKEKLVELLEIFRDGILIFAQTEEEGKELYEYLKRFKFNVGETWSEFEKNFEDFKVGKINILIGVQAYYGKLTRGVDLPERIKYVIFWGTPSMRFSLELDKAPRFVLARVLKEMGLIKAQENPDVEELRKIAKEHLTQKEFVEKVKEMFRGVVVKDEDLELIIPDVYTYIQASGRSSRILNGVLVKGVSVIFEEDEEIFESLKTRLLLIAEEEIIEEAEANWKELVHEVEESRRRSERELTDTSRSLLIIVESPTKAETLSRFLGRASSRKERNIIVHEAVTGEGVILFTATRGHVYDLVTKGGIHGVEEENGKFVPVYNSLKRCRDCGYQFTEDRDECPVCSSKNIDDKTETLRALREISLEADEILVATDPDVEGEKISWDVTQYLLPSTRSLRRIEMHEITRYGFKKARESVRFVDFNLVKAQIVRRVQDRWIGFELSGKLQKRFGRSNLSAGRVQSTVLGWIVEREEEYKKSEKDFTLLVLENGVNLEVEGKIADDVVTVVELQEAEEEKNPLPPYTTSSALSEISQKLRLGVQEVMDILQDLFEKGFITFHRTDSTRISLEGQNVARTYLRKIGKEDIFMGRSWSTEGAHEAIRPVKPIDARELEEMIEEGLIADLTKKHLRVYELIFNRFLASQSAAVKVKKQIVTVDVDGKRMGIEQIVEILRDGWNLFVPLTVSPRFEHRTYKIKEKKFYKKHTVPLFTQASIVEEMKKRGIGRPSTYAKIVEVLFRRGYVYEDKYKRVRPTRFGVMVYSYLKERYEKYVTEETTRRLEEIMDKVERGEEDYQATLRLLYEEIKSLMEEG

[4] = target: T1, rGyr_hel (reverse gyrase helicase-like …); remark: listed apart in the source
[5] = target: T2, rGyr_fl Y851F (full-length reverse …); remark: listed apart in the source
[6] = target: T2, rGyr_fl Y851F (full-length reverse …); remark: listed apart in the source
[7] = target: T2, rGyr_fl Y851F (full-length reverse …); remark: listed apart in the source
[8] = target: T2, rGyr_fl Y851F (full-length reverse …); remark: listed apart in the source

B1: 60-base ssDNA (ssDNA)
DNA: AAGCCAAGCTTCTAGAGTCAGCCCGTGATATTCATTACTTCTTATCCTAGGATCCCCGTT
Binder B1 has a Kd [1] of 600 ± 70 nM, a Kd [2] of 200 ± 10 nM and a Kd [3] of 49 ± 12 nM. It also gave a Kd [4] of 380 ± 50 nM, a Kd [5] of 36 ± 1 nM and a Kd [6] of 330 ± 20 nM. For the same binder, the Kd [7] was 39 ± 1 nM and the Kd [8] was 45 ± 2 nM.
